Assay results: patent publication US20230087385A1, “Use of SAA, rSAA or inhibitors of SAA in the treatment of dysregulated inflammation” (LIKA ANTISEPSIS GBR, priority 2020, published 2023)

What was measured:
[1] = system: neutrophils; assay: Anti-inflammatory potential of SAA on neutrophils (oxidative burst, migration, myeloperoxidase release, O2-release); format: cell-based
Description: The anti-inflammatory potential of SAA on neutrophils has been confirmed for SAA at reported serum concentrations. […] However, at higher concentrations of more than 50 μg/ml, SAA was stimulating. In addition, O2-release was inhibited up to 0.1 μg/ml, but the O2-release was increased above that. Thus, SAA plays a dual role, it down-regulates inflammatory processes in lower concentration but, during the full APR, the action of SAA can be promoting.

[2] = system: human neutrophils; assay: FMLP-induced oxidative burst of normal human neutrophils; format: cell-based; details: SAA at 0.1 μg/ml and 1.0 μg/ml
From the text: (§1) This was the first time that a function of SAA was blocked by a monoclonal AA antibody. The monoclonal antibody mc29 used probably also blocks the laminin-like domain (aa 29-33) and may also be participating partially with the RGD-like domain (aa 39-41). In addition, human neutrophils were exposed to full human APS at different temperatures. […] This indicated an irreversible structural change of SAA (or its fragments) during high fever, which is blocking SAA's return to the reversible binding to HDL. (This febrile temperature-that induced the aggregation of AA-antigenic proteins has also been noticed in vitro and documented in FIG. 2 at 38° C. and 40° C.). The possibly unfavorable consequences of these aggregates in humans or animals are unknown today.

[3] = system: human neutrophils; assay: Binding of SAA to human neutrophils
From the text: as §1

[4] = Immunodiffusion of SAA-HDL containing acute phase serum with polyclonal anti-AA at different temperatures; format: physicochemical; details: added to normal human serum
Description: Immunodiffusion (ID) at different temperatures. The ID was performed in 1.5% Seakem Agarose in 0.03 M barbital buffer, pH 8.6 with the same reagents in each of the three plates a 6 wells (A-C). Top and bottom well contained AA (0.1 mg/ml), the middle well contained polyclonal rabbit anti-AA antibodies undiluted and the 4 side wells contained elevated SAA-HDL containing APS from 4 patients at 1/10 diluted. Plate A after diffusion over night at room temperature, plate B at 4° C. over night and plate C first at 4° over night as plate B at 4° C. followed by room temperature for 6 hs similar to plate A.
In FIG. 1A, one recognizes a line of identity of AA with all four patients' sera as if the SAA (probably SAA1 and SAA2) reaction were done with pure SAA. At 4° C. in FIG. 1B, however, there is no reaction with SAA-HDL in serum. This is due to the hiding of the AA-reactive parts of SAA through HDL. […] Therefore, the separation of SAA from HDL is temperature-dependent.

[5] = SAA at reported serum concentrations

**Q.** For “83-104: SAA peptide aa 83-104 (NEWGRSGKDPNHFRPAGLPEKY; UniProt P0DJI8 101-122, looked up, fragment)”, which “contribution of SAA peptides to the inhibitory effect on neutrophils” value [1] is on record?
**A.** Its value is “contributed to this inhibitory effect”.

**Q.** For “aa 1-14: SAA peptide aa 1-14 (RSFFSFLGEAFDGA; UniProt P0DJI8 19-32, looked up, fragment)”, which “contribution of SAA peptides to the inhibitory effect on neutrophils” value [1] is on record?
**A.** The value was “contributed to this inhibitory effect”.

B1: SAA: serum amyloid A protein, 12.5 kDa acute phase protein isolated from human serum (protein)
chain: RSFFSFLGEAFDGARDMWRAYSDMREANYIGSDKYFHARGNYDAAKRGPGGAWAAEVITDARENIQRFFGHGAEDS
**Q.** For B1, which “FMLP-induced oxidative burst of normal human neutrophils” value [2] is on record?
**A.** Its value is “reduced, concentration-dependently”.

**Q.** What about the “binding with human neutrophils” value [3] of the same molecule?
**A.** Its value is “Strong binding”.

**Q.** What about the migration of neutrophils [1, 5] of the same molecule?
**A.** The migration of neutrophils was “inhibited”.

**Q.** What about the neutrophil myeloperoxidase release [1, 5] of the same molecule?
**A.** Its neutrophil myeloperoxidase release is “inhibited”.

**Q.** What about the “oxidative burst of neutrophils” value [1, 5] of the same molecule?
**A.** The value was “inhibited”.

**Q.** And the O2-release ([1]; above 0.1 μg/ml)?
**A.** Its O2-release is “increased”.

**Q.** And the “effect on neutrophils at higher concentrations” value ([1]; more than 50 μg/ml)?
**A.** Its value is “stimulating”.

**Q.** And the O2-release ([1]; up to 0.1 μg/ml)?
**A.** The O2-release was “inhibited”.

B2: recombinant SAA2: recombinant serum amyloid A2 protein (SEQ ID NO: 2: human SAA2) (protein, UniProt P0DJI9 19-122, looked up)
Serum amyloid A-2 protein: RSFFSFLGEAFDGARDMWRAYSDMREANYIGSDKYFHARGNYDAAKRGPGGAWAAEVISNARENIQRLTGRGAEDSLADQAANKWGRSGRDPNHFRPAGLPEKY
**Q.** With B2 as the molecule, how does the “binding with human neutrophils” value [3] read?
**A.** Its value is “Strong binding”.

**Q.** And the “temperature-dependent immunodiffusion behavior as in FIG. 1” value [4]?
**A.** Its value is “repeat exactly that behavior”.
